Reference: publication PMC7021315

What was measured:
[1] = biological target: recombinant Zika virus E protein (soluble E, lacking the stem-anchor region) (Zika virus); experiment: SEC; Superdex 200 Increase 3.2/300 column, ÄKTA FPLC, TAN buffer pH 8.0
[2] = biological target: recombinant Zika virus E protein (soluble E, lacking the stem-anchor region) (Zika virus); experiment: rate zonal ultracentrifugation in sucrose gradients; 3-5 ug E protein on sucrose gradients, 20 h at 38,000 rpm, 15°C, Beckman SW40 rotor; fractions quantified by ELISA (Strep-Tactin capture, mab A1 detection)

For “recombinant Zika virus E protein (soluble E, lacking the stem-anchor region) (domain or fragment)”, the stoichiometry N [1] was 2 and the stoichiometry N [2] was 2.
